Source: US20200095333A1 (published 2020)
Positions count from the first letter of the chain named. In names and notes the source's numbering stands.

Columns and labels:
[1] = biological target: T1, human serum albumin (HSA) (human, UniProt P02768 25-609); test: ELISA, HSA coat, biotinylated sCD32B detection
T1 construct: also called human albumin; HRP-human albumin

[2] = biological target: T2, soluble CD16A(158F) (human, UniProt P08637 17-208); test: SPR, HSA immobilised, ABD-DART then 200 nM CD32B and 200 nM CD16A(F158)
T2 construct: extracellular domain; also called CD16A(F158); sCD16A

[3] = biological target: T3, sCD32B (soluble CD32B, FcgammaRIIB) (human, UniProt P31994 43-217); test: dual ELISA, CD16 coat, biotinylated sCD32B detection
T3 construct: extracellular domain; also called soluble CD32B ectodomain
T3 sequence: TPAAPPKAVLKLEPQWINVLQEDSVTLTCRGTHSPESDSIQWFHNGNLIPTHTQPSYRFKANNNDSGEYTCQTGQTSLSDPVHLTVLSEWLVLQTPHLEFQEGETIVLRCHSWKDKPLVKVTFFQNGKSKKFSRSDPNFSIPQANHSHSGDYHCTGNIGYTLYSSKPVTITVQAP

[4] = biological target: T4, sCD16A (soluble CD16A, FcgammaRIIIA) (human, UniProt P08637 17-208); test: as above
T4 construct: extracellular domain; given only as soluble; used immobilised (SPR), coated, or biotin/HRP-labelled as probe (ELISA); also called CD16 antigen; sCD16A-Biotin

[5] = biological target: T4, sCD16A (soluble CD16A, FcgammaRIIIA); test: SPR (BIAcore), receptor immobilised, diabody 6.25-200 nM
[6] = biological target: T3, sCD32B (soluble CD32B, FcgammaRIIB); test: sandwich ELISA, CD32B coat, HRP-CD16 probe
[7] = biological target: T4, sCD16A (soluble CD16A, FcgammaRIIIA); test: sandwich ELISA, CD32B coat, HRP-CD16 probe
[8] = biological target: T3, sCD32B (soluble CD32B, FcgammaRIIB); test: sandwich ELISA, CD32B coat, CD16A probe
[9] = biological target: T4, sCD16A (soluble CD16A, FcgammaRIIIA); test: sandwich ELISA, CD32B coat, CD16A probe
[10] = biological target: T5, mCD32B (murine CD32B) (murine, UniProt P08101 30-210); test: mCD32-hCD16A binding ELISA
T5 sequence: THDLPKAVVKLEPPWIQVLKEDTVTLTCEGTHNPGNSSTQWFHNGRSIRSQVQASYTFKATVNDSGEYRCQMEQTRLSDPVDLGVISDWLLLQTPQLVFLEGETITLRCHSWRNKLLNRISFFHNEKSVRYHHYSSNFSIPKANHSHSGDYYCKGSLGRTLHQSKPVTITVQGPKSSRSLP

[11] = biological target: T4, sCD16A (soluble CD16A, FcgammaRIIIA); test: mCD32-hCD16A binding ELISA
[12] = biological target: T1, human serum albumin (HSA); test: HSA binding class (+ = 0.1-0.4)
[13] = biological target: T1, human serum albumin (HSA); test: HSA binding class (+++ = 0.7-1.0)
[14] = biological target: T1, human serum albumin (HSA); test: albumin binding of ABD variants
[15] = biological target: T1, human serum albumin (HSA); test: deimmunized ABD ELISA (FIG. 57)

T4 sequence (P08637 17-208): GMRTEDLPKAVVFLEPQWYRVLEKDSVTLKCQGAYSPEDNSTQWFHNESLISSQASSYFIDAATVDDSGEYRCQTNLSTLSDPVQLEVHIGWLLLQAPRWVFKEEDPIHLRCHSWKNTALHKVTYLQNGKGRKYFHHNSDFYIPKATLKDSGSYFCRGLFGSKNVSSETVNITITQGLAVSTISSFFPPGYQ
T2 sequence (P08637 17-208): as above

B1: hCD16-hCD32B ABD-DART (bispecific antibody)
chain 1: DIVMTQSPDSLAVSLGERATINCKASQSVDFDGDSFMNWYQQKPGQPPKLLIYTTSNLESGVPDRFSGSGSGTDFTLTISSLQAEDVAVYYCQQSNEDPYTFGQGTKLEIKGGGSGGGGQVQLVQSGAEVKKPGASVKVSCKASGYTFTNYWIHWVRQAPGQGLEWIGVIDPSDTYPNYNKKFKGRVTMTVVVSTSTAYMELRSLRSDDTAVYYCARNGDSDYYSGMDYWGQGTTVTVSSGGCGGGKVAALKEKVAALKEKVAALKEKVAALKEGGGNS
chain 2: EIVLTQSPDFQSVTPKEKVTFTCRTSQSIGTNIHWYQQKPDQSPKLLIKEVSESISGVPSRFSGSGSGTDFTLTINSLEAEDAATYYCQQSNTWPFTFGGGTKVEIKGGGSGGGGQVTLRESGPALVKPTQTLTLTCTFSGFSLSTSGMGVGWIRQPPGKALEWLAHIWWDDDKRYNPALKSRLTISKDTSKNQVVLTMTNMDPVDTATYYCAQINPAWFAYWGQGTLVTVSSGGCGGGEVAALEKEVAALEKEVAALEKEVAALEKGGGNSLAEAKVLANRELDKYGVSDYYKNLINNAKTVEGVKALIDEILAALP
notes: also called hCD16-hCD32B EK ABD-DART; DART ABD fusion
Q: Does B1 bind [1]?
A: Result: binds

Q: Does B1 bind [2]?
A: Result: binds

Q: Does B1 bind [3]?
A: Result: binds

Q: Does B1 bind [4]?
A: Result: binds

B2: h3G8 CMD (covalent monospecific diabody, construct 3) (other)
chain: DIVMTQSPDSLAVSLGERATINCKASQSVDFDGDSFMNWYQQKPGQPPKLLIYTTSNLESGVPDRFSGSGSGTDFTLTISSLQAEDVAVYYCQQSNEDPYTFGQGTKLEIKGGGSGGGGQVTLRESGPALVKPTQTLTLTCTFSGFSLSTSGMGVGWIRQPPGKALEWLAHIWWDDDKRYNPALKSRLTISKDTSKNQVVLTMTNMDPVDTATYYCAQINPAWFAYWGQGTLVTVSSLGGC
modifications: covalent homodimer; interchain disulfide through the C-terminal LGGC cysteines
notes: covalent homodimer diabody; also called h3G8 diabody
Q: Which Kd [5] does the source give for B2 here?
A: The Kd was 18 nM.

B3: product of constructs 1 and 9 (pMGX0669+pMGX0719) (bispecific antibody)
chain 1: EIVLTQSPDFQSVTPKEKVTFTCRTSQSIGTNIHWYQQKPDQSPKLLIKEVSESISGVPSRFSGSGSGTDFTLTINSLEAEDAATYYCQQSNTWPFTFGGGTKVEIKGGGSGGGGQVTLRESGPALVKPTQTLTLTCTFSGFSLSTSGMGVGWIRQPPGKALEWLAHIWWDDDKRYNPALKSRLTISKDTSKNQVVLTMTNMDPVDTATYYCAQINPAWFAYWGQGTLVTVSSLGGC
chain 2: not shown
notes: hinge-Fc at the N-terminus of the heavier chain; also called constructs 9+1; copies: 2 + 2
Q: Does B3 bind [6]?
A: Result: binds

Q: Does B3 bind [7]?
A: Result: binds

B4: product of constructs 1 and 10 (pMGX0669+pMGX0718) (bispecific antibody)
chain 1: B3 chain 1
chain 2: not shown
notes: Fc at the N-terminus of the heavier chain; also called constructs 10+1; copies: 2 + 2
Q: What does the source list for B4?
A: binding result [6]: binds; binding result [7]: binds

B5: product of constructs 11 and 12 (bispecific antibody)
chain 1: not shown
chain 2: DIVMTQSPDSLAVSLGERATINCKASQSVDFDGDSFMNWYQQKPGQPPKLLIYTTSNLESGVPDRFSGSGSGTDFTLTISSLQAEDVAVYYCQQSNEDPYTFGQGTKLEIKGGGSGGGGQVQLVQSGAEVKKPGASVKVSCKASGYTFTNYWIHWVRQAPGQCLEWIGVIDPSDTYPNYNKKFKGRVTMTVVVSTSTAYMELRSLRSDDTAVYYCARNGDSDYYSGMDYWGQGTTVTVSSFNRGEC
notes: C-terminal hinge-Fc; engineered cysteines G105C (2B6 VL) and G44C (2B6 VH); copies: 2 + 2
Q: Does B5 bind [6]?
A: Result: binds

Q: Does B5 bind [7]?
A: Result: binds

B6: product of constructs 15 and 16 (pMGX0752+pMGX0753) (bispecific antibody)
chain 1: EIVLTQSPDFQSVTPKEKVTFTCRTSQSIGTNIHWYQQKPDQSPKLLIKEVSESISGVPSRFSGSGSGTDFTLTINSLEAEDAATYYCQQSNTWPFTFGGGTKVEIKGGGSGGGGQVTLRESGPALVKPTQTLTLTCTFSGFSLSTSGMGVGWIRQPPGKALEWLAHIWWDDDKRYNPALKSRLTISKDTSKNQVVLTMTNMDPVDTATYYCAQINPAWFAYWGQGTLVTVSSFNRGEC
chain 2: B5 chain 2 with C163G, F241V, N242E, R243P, G244K, E245S
notes: Hu2B6VL-Hu3G8VH-FNRGEC and Hu3G8VL-Hu2B6VH-VEPKSC; also called construct 15/16 combination
Q: What does the source list for B6?
A: binding result [8]: binds; binding result [9]: binds

B7: product of co-expression of constructs 7 and 8 (pMGX0677+pMGX0678), tetrameric IgG-like diabody (bispecific antibody)
chain 1: EIVLTQSPDFQSVTPKEKVTFTCRTSQSIGTNIHWYQQKPDQSPKLLIKEVSESISGVPSRFSGSGSGTDFTLTINSLEAEDAATYYCQQSNTWPFTFGGGTKVEIKGGGSGGGGQVTLRESGPALVKPTQTLTLTCTFSGFSLSTSGMGVGWIRQPPGKALEWLAHIWWDDDKRYNPALKSRLTISKDTSKNQVVLTMTNMDPVDTATYYCAQINPAWFAYWGQGTLVTVSSLGGCFNRGEC
chain 2: not shown
Q: What does the source list for B7?
A: binding result [6]: binds; binding result [7]: binds

B8: Ig-like tetravalent DART (2.4G2-3G8-hKappa / 3G8-2.4G2-hG1) (bispecific antibody)
chain 1: DVQMTQSPSNLAASPGESVSINCKASESISKYLAWYLQKPGKANKLLMYDGSTLQSGIPSRFSGSGSGTDFTLTIRSLEPEDFGLYYCQQHYEYPATFGSGTKLEIKGGGSGGGGQVTLKESGPGILQPSQTLSLTCSFSGFSLRTSGMGVGWIRQPSGKGLEWLAHIWWDDDKRYNPALKSRLTISKDTSSNQVFLKIASVDTADTATYYCAQINPAWFAYWGQGTLVTVSSLGGCGGGSRTVAAPSVFIFPPSDEQLKSGTASVVCLLNNFYPREAKVQWKVDNALQSGNSQESVTEQDSKDSTYSLSSTLTLSKADYEKHKVYACEVTHQGLSSPVTKSFNRGEC
chain 2: not shown
notes: also called Ig DART 1; Ig DART 2
Q: Does B8 bind [10]?
A: Result: binds

Q: Does B8 bind [11]?
A: Result: binds

Q: With LAEAKVLANRELDKYGVSDYYKNLADNAKTAEGVKALIDEILAALP (other, also called 65A/66D/71A) [ABD I65A/N66D/V71A] as the binder, how does the HSA binding [12] read?
A: The HSA binding was 0.1 to 0.4.

Q: LAEAKVLANRELDKYGVSDYYKNLIDNAKTVEGVKALIDEILAALP (other) [ABD N66D] was tested. Which HSA binding [13] did it give?
A: The HSA binding was 0.7 to 1.

Q: How did the HSA binding [12] turn out when LAEAKVLANRELDKYGVSDYYKNGIDNAKTAEGVKALIDEILAALP (other, also called 64G/66D/71A) [ABD L64G/N66D/V71A] was run?
A: Its HSA binding is 0.1 to 0.4.

Q: Does LAEAKVLANRELDKYGVSDYYKNLIDNAKSAEGVKALIDEILAALP (other) [ABD N66D/T70S/V71A (ABD (DSA))] bind [14]?
A: Result: binds

Q: Which HSA binding [12] does the source give for LAEAKVLANRELDKYGVSDYYKNAIDNAKTAEGVKALIDEILAALP (other, also called 64A/66D/71A) [ABD L64A/N66D/V71A] here?
A: Its HSA binding is 0.1 to 0.4.

Q: For LAEAKVLANRELDKYGVSDYYKNLIENAKTVEGVKALIDEILAALP (other) [ABD N66E], which HSA binding [13] is on record?
A: Its HSA binding is 0.7 to 1.

Q: Does LAEAKVLANRELDKYGVSDYYKNAANNAKTVEGVKALIAEILAALP (other) [variant ABD L64A, I65A and D79A] bind [15]?
A: Result: binds

Q: Does LAEAKVLANRELDKYGVSDYYKNLISNAKSVEGVKALIAEILAALP (other) [variant ABD N66S, T70S and D79A] bind [15]?
A: Result: binds
